Numbering of substitutions follows the chain as printed. Names may count otherwise.
T1: S100A1 protein, dansyl-labelled (human, UniProt P23297 1-94, dansyl (DNS) label from dansyl chloride, site not stated)
T1 construct: human S100A1; cDNA cloned into pET28b; No tag is mentioned; purification was by Phenyl Sepharose; also called DNS-S100A1; Ca2+-S100A1; source: E. coli BL21, purified (Phenyl Sepharose CL4B, Superdex 75), labelled with dansyl chloride
T1 sequence (looked up): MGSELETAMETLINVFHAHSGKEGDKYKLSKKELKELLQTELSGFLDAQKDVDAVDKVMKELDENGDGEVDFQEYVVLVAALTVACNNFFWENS

B1: TRPC6(801–878) K856A (domain or fragment, rat, UniProt Q99N78 801-878, looked up)
chain: NKRNEEKKFGILGSHEDLSKFSLDRNQLAHNKQSSTRSSEDFHLNSFSNPPRQYQAIMKRLIKRYVLQAQIDKESDEV
notes: C-terminal part of rat TRPC6, amino acids 801-878, with K856A; Same construct as m1 (pET42b) with the point mutation; source: E. coli Rosetta, purified (Chelating Sepharose Fast Flow, Superdex 75)
B2: TRPC6(801–878) R852A/K859A/R860A (domain or fragment, rat, UniProt Q99N78 801-878, looked up)
chain: B1 chain with R52A, A56K, K59A, R60A
notes: C-terminal part of rat TRPC6, amino acids 801-878, with R852A, K859A and R860A; Same construct as m1 (pET42b) with the triple substitution; also called triple mutation Arg852/Lys859/Arg860; source: E. coli Rosetta, purified (Chelating Sepharose Fast Flow, Superdex 75)
B3: TRPC6(801–878) R852A (domain or fragment, rat, UniProt Q99N78 801-878, looked up)
chain: B1 chain with R52A, A56K
notes: C-terminal part of rat TRPC6, amino acids 801-878, with R852A; Same construct as m1 (pET42b) with the point mutation; also called TRPC6 single mutant R852A; source: E. coli Rosetta, purified (Chelating Sepharose Fast Flow, Superdex 75)
B4: TRPC6(801–878) K859A/R860A/R864A (domain or fragment, rat, UniProt Q99N78 801-878, looked up)
chain: B1 chain with A56K, K59A, R60A, R64A
notes: C-terminal part of rat TRPC6, amino acids 801-878, with K859A, R860A and R864A; Same construct as m1 (pET42b) with the triple substitution; also called triple substitution Lys859/Arg860/Arg864; source: E. coli Rosetta, purified (Chelating Sepharose Fast Flow, Superdex 75)
B5: TRPC6(801–878) R864A (domain or fragment, rat, UniProt Q99N78 801-878, looked up)
chain: B1 chain with A56K, R64A
notes: C-terminal part of rat TRPC6, amino acids 801-878, with R864A; Same construct as m1 (pET42b) with the point mutation; source: E. coli Rosetta, purified (Chelating Sepharose Fast Flow, Superdex 75)

Target: T1, S100A1 protein, dansyl-labelled
Assay: fluorescence polarisation; steady-state fluorescence anisotropy; TRPC6 construct titrated into DNS-S100A1 solution (232 µM as printed) in presence of calcium ions; excitation 340 nm, emission 520 nm
Conditions: both partners purified

Kd [nM] | Binder
760 | B1
2620 | B2
480 | B3
400 | B4
920 | B5
